# Target: Ints3-555-976 R788E/K789E (human, UniProt Q68E01-2 555-976, R788E;K789E)
# Experiment: EMSA; not reduced vs WT (WT itself weak); up to 200 uM; 20 mM Hepes pH 7.4, 100 mM NaCl, 1 mM MgCl2, 1 mg/ml BSA, 2 mM DTT, 5% glycerol; on ice 30 min; 7.5 nM probe; native 5% PAGE in 1X TBE
# Details: protein: recombinant; chain copies: 2; label: 5' 32P; single strand
# Chain of Ints3-555-976 R788E/K789E (Q68E01 556-977 R789E/K790E): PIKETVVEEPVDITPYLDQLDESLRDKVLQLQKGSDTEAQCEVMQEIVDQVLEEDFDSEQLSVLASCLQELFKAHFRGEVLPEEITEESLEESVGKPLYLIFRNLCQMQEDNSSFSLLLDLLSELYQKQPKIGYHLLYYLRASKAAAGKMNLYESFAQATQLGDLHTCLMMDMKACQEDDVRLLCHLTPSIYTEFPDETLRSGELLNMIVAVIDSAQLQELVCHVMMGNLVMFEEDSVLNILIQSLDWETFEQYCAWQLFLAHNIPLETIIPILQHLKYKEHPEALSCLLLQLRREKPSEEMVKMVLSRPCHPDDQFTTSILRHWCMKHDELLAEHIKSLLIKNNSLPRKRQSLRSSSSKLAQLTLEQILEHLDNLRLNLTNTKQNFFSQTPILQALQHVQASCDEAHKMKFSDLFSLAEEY
binder,measurement,value
TTTTTTTTTTTTTTTTTTTTTTTTTTTTTT (ssDNA) [dT30],binding result,binds

# Reference: publication PMC7948952, “Structural basis for multifunctional roles of human Ints3 C-terminal domain” (The Journal of Biological Chemistry, 2020)
